# Experimental data taken from IntAct's records for PubMed 10743655.
# B1: Zinc finger protein CONSTANS (Arabidopsis thaliana (Mouse-ear cress)), Q39057 (parent)
# chain: MLKQESNDIGSGENNRARPCDTCRSNACTVYCHADSAYLCMSCDAQVHSANRVASRHKRVRVCESCERAPAAFLCEADDASLCTACDSEVHSANPLARRHQRVPILPISGNSFSSMTTTHHQSEKTMTDPEKRLVVDQEEGEEGDKDAKEVASWLFPNSDKNNNNQNNGLLFSDEYLNLVDYNSSMDYKFTGEYSQHQQNCSVPQTSYGGDRVVPLKLEESRGHQCHNQQNFQFNIKYGSSGTHYNDNGSINHNAYISSMETGVVPESTACVTTASHPRTPKGTVEQQPDPASQMITVTQLSPMDREARVLRYREKRKTRKFEKTIRYASRKAYAEIRPRVNGRFAKREIEAEEQGFNTMLMYNTGYGIVPSF
# partner: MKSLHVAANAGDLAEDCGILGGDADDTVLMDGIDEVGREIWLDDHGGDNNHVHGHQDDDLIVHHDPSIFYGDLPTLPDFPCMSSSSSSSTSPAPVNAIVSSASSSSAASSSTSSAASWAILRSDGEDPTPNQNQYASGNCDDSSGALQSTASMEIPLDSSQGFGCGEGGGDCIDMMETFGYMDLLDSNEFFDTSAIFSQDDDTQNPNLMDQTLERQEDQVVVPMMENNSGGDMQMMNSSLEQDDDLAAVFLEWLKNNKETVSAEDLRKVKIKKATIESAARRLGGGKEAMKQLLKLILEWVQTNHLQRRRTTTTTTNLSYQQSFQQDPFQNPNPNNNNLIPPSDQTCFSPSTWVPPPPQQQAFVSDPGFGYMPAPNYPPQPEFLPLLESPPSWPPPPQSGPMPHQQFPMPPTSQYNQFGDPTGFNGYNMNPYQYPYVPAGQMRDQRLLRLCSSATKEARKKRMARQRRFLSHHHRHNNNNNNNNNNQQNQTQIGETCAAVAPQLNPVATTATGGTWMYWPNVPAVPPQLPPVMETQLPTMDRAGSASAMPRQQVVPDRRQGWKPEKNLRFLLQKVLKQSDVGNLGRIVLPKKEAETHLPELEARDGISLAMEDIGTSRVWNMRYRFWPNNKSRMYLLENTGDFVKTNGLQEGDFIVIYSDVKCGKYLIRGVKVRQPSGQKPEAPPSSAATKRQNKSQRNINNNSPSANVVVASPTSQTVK
# Variants of: B1
# Settings: with abi3_arath ABI3, Q01593
row,Variant,effect of a mutation on the interaction
1,P339L,decreasing interaction
2,R340Q,decreasing interaction strength
